Molecular target: T1, MBP-PgmD401A (Paramecium tetraurelia, UniProt A0DFJ7 1-1065, D401A)
T1 sequence: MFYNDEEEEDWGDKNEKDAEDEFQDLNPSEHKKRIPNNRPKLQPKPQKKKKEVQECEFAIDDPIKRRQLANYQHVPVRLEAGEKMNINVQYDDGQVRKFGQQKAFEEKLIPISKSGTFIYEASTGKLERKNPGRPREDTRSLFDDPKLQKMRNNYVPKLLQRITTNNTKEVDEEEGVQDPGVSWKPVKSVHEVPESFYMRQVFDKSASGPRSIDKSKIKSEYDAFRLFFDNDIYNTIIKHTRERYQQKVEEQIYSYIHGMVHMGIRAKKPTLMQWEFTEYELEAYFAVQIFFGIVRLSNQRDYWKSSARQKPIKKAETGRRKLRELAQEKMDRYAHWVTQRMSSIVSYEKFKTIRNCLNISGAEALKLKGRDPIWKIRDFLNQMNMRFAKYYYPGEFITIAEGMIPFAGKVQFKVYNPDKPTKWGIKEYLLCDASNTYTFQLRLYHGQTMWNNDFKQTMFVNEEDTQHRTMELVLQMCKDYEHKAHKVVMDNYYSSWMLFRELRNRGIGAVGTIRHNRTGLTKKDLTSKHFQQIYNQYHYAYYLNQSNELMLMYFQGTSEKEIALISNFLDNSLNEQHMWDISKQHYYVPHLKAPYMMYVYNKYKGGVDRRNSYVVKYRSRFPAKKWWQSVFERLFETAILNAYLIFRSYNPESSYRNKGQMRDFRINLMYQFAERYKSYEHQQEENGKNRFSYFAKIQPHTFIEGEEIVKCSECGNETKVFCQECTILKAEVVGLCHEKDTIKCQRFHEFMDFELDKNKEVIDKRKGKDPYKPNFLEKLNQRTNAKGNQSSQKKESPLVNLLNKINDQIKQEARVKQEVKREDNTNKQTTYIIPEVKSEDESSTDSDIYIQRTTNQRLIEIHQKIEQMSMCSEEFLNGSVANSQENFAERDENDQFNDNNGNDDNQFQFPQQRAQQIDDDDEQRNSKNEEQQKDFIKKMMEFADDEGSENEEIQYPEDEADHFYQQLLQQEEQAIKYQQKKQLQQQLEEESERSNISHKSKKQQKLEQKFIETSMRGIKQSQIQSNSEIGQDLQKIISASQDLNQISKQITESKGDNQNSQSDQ
Experiment: DRaCALA; 400 nM protein; DRaCALA: 25 mM HEPES pH 7.5, 0.1 mg/ml BSA, 0.5 mM DTT, 100 mM NaCl, 25 nM DNA, no competitor, temperature not stated; EMSA: as in earlier paper, 5% acrylamide
Details: protein: recombinant; tags: N-terminal MBP; label: 32P at 5' end of top strand

B1: IES 51A1835 80-bp substrate (dsDNA)
DNA 1: ACTACTACATAATGCTAAACTCATTTATAGATGGATTGTTTTCCAAGTATCTATATCATCATGTGTTGCTAATAACCCTG
DNA 2: ATCGCAGGGTTATTAGCAACACATGATGATATAGATACTTGGAAAACAATCCATCTATAAATGAGTTTAGCATTATGTAGT
- binding result: binds
